One molecule from paper PMC6406557, “Lysozyme Aptamer-Functionalized Magnetic Nanoparticles for the Purification of Lysozyme from Chicken Egg White” can be followed below.

One data set has as its target lysozyme from egg white (chicken, UniProt P00698 19-147). The experiment in a line: pull-down from egg white on aptamer-functionalized magnetic nanoparticles, SDS-PAGE; 113 +/- 4.2 mg/g from egg white; Adsorption optimum: 4.0 mg/mL lysozyme, 60 min, pH 9.0, 37 C, 0 M NaCl; egg white: mixed 1:1 with 20 mM PBS pH 7.2-8.0, 10 mg NPs per mL, 37 C, 60 min. As to conditions: protein: native.

The target of the next data set is lysozyme (chicken (Gallus gallus)?, UniProt P00698 19-147). The experiment in a line: pull-down on aptamer-functionalized magnetic nanoparticles (adsorption, A280); capacity 460 +/- 3.4 mg/g at pH 9.0, 37 C, 0 M NaCl; bare Fe3O4 218.39 and NH2-Fe3O4 211.35 mg/g, so part is non-aptamer adsorption; Adsorption optimum: 4.0 mg/mL lysozyme, 60 min, pH 9.0, 37 C, 0 M NaCl; egg white: mixed 1:1 with 20 mM PBS pH 7.2-8.0, 10 mg NPs per mL, 37 C, 60 min. As to conditions: protein: commercial.
lysozyme, sequence (P00698 19-147): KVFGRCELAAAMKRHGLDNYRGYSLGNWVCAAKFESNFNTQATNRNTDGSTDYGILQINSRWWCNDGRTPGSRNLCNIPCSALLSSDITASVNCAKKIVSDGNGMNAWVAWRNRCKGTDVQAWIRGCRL

lysozyme from egg white, sequence (P00698 19-147): as above

With TTTTTTATCAGGGCTAAAGAGTGC (ssDNA, 5'-aldehyde, coupled as imine to NH2-Fe3O4 nanoparticles) [lysozyme aptamer], the binding result in the data set with lysozyme from egg white and with lysozyme was “binds” in each case.
